Test results as given in patent publication US20020150888A1 (published 2002).
Where two headings read alike, the source gives them in different places.

B1: FLAG-tagged 88C receptor (receptor)
chain: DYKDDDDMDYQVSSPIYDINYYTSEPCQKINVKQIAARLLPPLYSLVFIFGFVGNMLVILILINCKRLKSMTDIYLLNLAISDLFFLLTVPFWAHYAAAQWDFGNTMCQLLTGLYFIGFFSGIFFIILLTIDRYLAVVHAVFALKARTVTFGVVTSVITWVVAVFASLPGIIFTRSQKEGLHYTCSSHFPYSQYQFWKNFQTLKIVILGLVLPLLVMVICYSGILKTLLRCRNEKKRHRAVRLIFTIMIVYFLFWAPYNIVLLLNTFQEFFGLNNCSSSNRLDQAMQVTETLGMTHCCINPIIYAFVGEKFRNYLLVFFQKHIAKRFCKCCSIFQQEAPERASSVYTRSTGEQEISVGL
B2: MIP-1β (ligand, UniProt P13236 24-92, looked up)
chain: APMGSDPPTACCFSYTARKLPRNFVVDYYETSSLCSQPAVVFQTKRSKQVCADPSESWVQEYVYDLELN
notes: also called MIP-1p
B3: RANTES (ligand, UniProt P13501 24-91, looked up)
chain: SPYSSDTTPCCFAYIARPLPRAHIKEYFYTSGKCSNPAVVFVTRKNRQVCANPEKKWVREYINSLEMS

Experiments:
[1] = target: FLAG-tagged 88C receptor (human); test: cell-based or functional assay
[2] = target: FLAG-tagged 88C receptor (human); test: competition of unlabelled ligand with 1.5 nM 125I-MIP-1β on HEK-293 cells transfected with FLAG-tagged 88C
[3] = target: B2; test: equilibrium binding of 125I-MIP-1β to HEK-293 cells transfected with FLAG-tagged 88C, Scatchard analysis
[4] = target: B1; test: cell-based or functional assay
[5] = target: B1; test: competition of unlabelled ligand with 1.5 nM 125I-MIP-1β on HEK-293 cells transfected with FLAG-tagged 88C

Molecule | EC50 of inositol phosphate formation (phospholipase C assay, COS-7 cells co-transfected with Gqi5) [1] [nM] | IC50 [2] [nM] | Kd [3] [nM] | EC50 of inositol phosphate formation (phospholipase C assay, COS-7 cells co-transfected with Gqi5) [4] [nM] | IC50 [5] [nM]
MIP-1α (from UniProt P10147 24-92) (ligand) | 22 | 7.4 |  |  | 
B1 |  |  | 1.6 |  | 
B2 |  |  |  | 6 | 7.4
B3 |  |  |  | 1 | 6.9
